For experiment [1], the target named is myostatin (R&D Systems) (UniProt O14793). Briefly: cell-based or functional assay.
For experiment [2], the target named is T1, myostatin (R&D Systems) (UniProt O14793 267-375).
T1 sequence (looked up): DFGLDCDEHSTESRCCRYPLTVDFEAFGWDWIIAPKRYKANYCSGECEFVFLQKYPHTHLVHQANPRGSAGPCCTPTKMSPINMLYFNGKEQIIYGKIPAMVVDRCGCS
Description: cell-based or functional assay.

As for “Dual-arm WFIKKN2-G1Fc (from UniProt Q8TEU8 35-576) (Fc fusion)”, in the experiment with myostatin (R&D Systems) [1], the IC50 (nM), inhibition of myostatin signaling, pGL3(CAGA)12 reporter gene assay in A204 cells is over 100 nM.

In the experiment with myostatin (R&D Systems) [1], “Single-arm WFIKKN2-G1Fc (from UniProt P0DOX5 209-449) (Fc fusion)” displayed an IC50 (nM), inhibition of myostatin signaling, pGL3(CAGA)12 reporter gene assay in A204 cells of 2.9 nM.

B1: Single-chain WFIKKN2-His6 (other)
chain: LPPIRYSHAGICPNDMNPNLWVDAQSTCRRECETDQECETYEKCCPNVCGTKSCVAARYMDVKGKKGPVGMPKEATCDHFMCLQQGSECDIWDGQPVCKCKDRCEKEPSFTCASDGLTYYNRCYMDAEACSKGITLAVVTCRYHFTWPNTSPPPPETTMHPTTASPETPELDMAAPALLNNPVHQSVTMGETVSFLCDVVGRPRPEITWEKQLEDRENVVMRPNHVRGNVVVTNIAQLVIYNAQLQDAGIYTCTARNVAGVLRADFPLSVVRGHQAAATSESSPNGTAFPAAECLKPPDSEDCGEEQTRWHFDAQANNCLTFTFGHCHRNLNHFETYEACMLACMSGPLAACSLPALQGPCKAYAPRWAYNSQTGQCQSFVYGGCEGNGNNFESREACEESCPFPRGNQRCRACKPRQKLVTSFCRSDFVILGRVSELTEEPDSGRALVTVDEVLKDEKMGLKFLGQEPLEVTLLHVDWACPCPNVTVSEMPLIIMGEVDGGMAMLRPDSFVGASSARRVRKLREVMHKKTCDVLKEFLGLHHHHHHH
Turning to B1, the “IC50 (nM), inhibition of myostatin signaling, pGL3(CAGA)12 reporter gene assay in A204 cells” value in the experiment with myostatin (R&D Systems) [2] was found to be 1.4 nM.
